Data set [1] addresses recombinant p16^INK4A (wild type) (Homo sapiens) (UniProt P42771). Description: non-reducing SDS-PAGE.
Data set [2] deals with T1, endogenous p16^INK4A (human (endogenous in HEK293T)), P42771.
T1 chain: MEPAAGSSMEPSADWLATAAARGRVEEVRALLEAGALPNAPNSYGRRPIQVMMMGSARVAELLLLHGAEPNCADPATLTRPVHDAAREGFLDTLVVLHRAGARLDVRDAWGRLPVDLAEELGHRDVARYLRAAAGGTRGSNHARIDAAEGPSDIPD
Description: co-IP. Conditions: remark: other sources report otherwise.

The data set “co-IP” concerns the molecule itself. Description: co-IP.

In general, stoichiometry N refers to a count of units in the complex or per binding partner.

On to “recombinant p16^INK4A (wild type) (from UniProt P42771 1-156) (natural protein)”, for which the stoichiometry N in data set [1] was determined as 2.

B1: endogenous p16^INK4A, P42771 1-156 (natural protein)
chain: T1 chain
As for B1, in data set [2], the stoichiometry N was 2.

B2: FLAG-p16^INK4A (wild type) (natural protein, human, UniProt P42771 9-156, looked up)
chain: MEPSADWLATAAARGRVEEVRALLEAGALPNAPNSYGRRPIQVMMMGSARVAELLLLHGAEPNCADPATLTRPVHDAAREGFLDTLVVLHRAGARLDVRDAWGRLPVDLAEELGHRDVARYLRAAAGGTRGSNHARIDAAEGPSDIPD
In the case of B2, the “stoichiometry N” value in the data set “co-IP” was 2.

The record behind these values is paper PMC6812003 (Redox Biology, 2019).
